# Tests used:
# Assay in all cases: ELISA
# [1] = target: human FcγRIIA (UniProt P12318); details: Fc 20 µg/ml (highest point of the titration); parent: est. 0.53; read off a plot
# [2] = target: soluble recombinant tetrameric human DC-SIGN (UniProt Q9NNX6); details: Fc 20 µg/ml (highest point of the titration); parent: est. 0.98; read off a plot
# [3] = target: human FcγRIIIB (UniProt O75015); details: Fc 20 µg/ml (highest point of the titration); parent: est. 0.19; read off a plot
# [4] = target: human Siglec-1 (UniProt Q9BZZ2); details: Fc 50 µg/ml (highest point of the titration); parent: est. 1.2; read off a plot
# Sequence of human Siglec-1 (Q9BZZ2 20-1641): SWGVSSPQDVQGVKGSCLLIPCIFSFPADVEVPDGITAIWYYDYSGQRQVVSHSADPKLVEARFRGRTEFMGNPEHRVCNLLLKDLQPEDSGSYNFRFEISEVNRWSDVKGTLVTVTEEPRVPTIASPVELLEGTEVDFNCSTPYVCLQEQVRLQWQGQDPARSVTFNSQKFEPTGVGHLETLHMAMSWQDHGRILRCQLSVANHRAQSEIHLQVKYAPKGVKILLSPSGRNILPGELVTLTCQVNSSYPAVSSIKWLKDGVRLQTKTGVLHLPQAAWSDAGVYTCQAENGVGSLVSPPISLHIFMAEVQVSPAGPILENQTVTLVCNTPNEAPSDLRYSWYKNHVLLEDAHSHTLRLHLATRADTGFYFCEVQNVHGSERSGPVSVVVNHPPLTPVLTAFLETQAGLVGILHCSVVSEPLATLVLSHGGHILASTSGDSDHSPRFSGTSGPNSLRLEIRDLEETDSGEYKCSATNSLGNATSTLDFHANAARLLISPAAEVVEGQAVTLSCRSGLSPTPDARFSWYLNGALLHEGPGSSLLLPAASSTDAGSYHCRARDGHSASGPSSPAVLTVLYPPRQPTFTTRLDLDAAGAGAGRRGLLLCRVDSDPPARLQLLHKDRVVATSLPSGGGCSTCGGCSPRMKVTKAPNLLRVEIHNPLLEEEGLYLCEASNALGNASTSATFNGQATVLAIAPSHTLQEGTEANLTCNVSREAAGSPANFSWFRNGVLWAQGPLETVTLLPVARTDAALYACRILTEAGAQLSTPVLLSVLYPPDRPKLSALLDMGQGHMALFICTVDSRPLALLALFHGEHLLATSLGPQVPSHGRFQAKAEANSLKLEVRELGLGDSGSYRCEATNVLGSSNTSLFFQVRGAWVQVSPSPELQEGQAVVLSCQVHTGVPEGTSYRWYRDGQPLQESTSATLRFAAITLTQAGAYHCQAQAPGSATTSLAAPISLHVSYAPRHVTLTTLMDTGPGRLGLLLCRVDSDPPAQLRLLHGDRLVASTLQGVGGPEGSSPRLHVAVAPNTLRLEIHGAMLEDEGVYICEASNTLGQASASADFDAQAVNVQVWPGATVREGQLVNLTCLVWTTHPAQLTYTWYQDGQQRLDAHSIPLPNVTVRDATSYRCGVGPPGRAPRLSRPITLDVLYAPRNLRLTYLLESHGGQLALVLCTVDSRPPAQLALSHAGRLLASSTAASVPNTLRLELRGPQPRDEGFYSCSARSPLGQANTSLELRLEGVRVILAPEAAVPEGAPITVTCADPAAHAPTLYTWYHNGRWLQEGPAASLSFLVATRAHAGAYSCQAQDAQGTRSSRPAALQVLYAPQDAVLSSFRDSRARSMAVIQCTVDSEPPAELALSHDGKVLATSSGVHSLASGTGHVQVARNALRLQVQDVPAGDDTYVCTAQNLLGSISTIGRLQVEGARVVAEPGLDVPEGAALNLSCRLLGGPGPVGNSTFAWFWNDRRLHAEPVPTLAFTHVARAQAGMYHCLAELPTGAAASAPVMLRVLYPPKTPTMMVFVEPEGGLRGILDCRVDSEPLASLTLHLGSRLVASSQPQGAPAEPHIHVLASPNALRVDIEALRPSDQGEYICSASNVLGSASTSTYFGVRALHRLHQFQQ
# [5] = target: C1q; details: Ab 20 µg/ml (highest point of the titration); parent: est. 1.7; read off a plot
# [6] = target: human FcγRIIIA (UniProt P08637); details: Fc 20 µg/ml (highest point of the titration); parent: est. 0.99; read off a plot
# Sequence of human FcγRIIIA (P08637 17-208): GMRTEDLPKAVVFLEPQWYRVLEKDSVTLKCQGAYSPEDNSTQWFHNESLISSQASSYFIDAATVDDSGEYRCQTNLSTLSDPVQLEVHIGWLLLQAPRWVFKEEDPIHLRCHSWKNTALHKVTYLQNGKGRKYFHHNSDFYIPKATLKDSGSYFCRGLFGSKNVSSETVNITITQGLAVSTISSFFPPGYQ
# [7] = target: human FcγRI (UniProt P12314); details: Fc 20 µg/ml (highest point of the titration); parent: est. 2.1; read off a plot
# Sequence of human FcγRI (P12314 16-292): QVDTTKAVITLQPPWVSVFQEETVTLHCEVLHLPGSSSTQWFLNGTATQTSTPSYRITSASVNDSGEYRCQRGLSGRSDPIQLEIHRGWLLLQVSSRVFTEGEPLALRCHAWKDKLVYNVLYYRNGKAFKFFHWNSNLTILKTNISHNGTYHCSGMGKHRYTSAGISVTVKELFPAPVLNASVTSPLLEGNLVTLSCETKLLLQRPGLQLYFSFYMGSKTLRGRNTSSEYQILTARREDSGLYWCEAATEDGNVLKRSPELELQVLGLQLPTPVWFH
# [8] = target: human FcγRIIB (UniProt P31994); details: Fc 20 µg/ml (highest point of the titration); parent: est. 0.20; read off a plot
# Sequence of human FcγRIIB (P31994 43-217): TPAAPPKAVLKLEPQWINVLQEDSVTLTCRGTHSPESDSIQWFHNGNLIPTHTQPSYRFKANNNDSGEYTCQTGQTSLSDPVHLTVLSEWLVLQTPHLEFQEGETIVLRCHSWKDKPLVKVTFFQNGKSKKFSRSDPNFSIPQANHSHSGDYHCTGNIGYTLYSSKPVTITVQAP
# Sequence of human FcγRIIA (P12318 34-217): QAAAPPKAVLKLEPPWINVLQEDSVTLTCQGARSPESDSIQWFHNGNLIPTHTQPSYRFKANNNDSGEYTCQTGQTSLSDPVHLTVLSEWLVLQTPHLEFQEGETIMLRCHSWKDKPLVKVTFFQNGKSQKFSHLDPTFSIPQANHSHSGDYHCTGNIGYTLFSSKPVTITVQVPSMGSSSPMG
# Sequence of human FcγRIIIB (O75015 17-200): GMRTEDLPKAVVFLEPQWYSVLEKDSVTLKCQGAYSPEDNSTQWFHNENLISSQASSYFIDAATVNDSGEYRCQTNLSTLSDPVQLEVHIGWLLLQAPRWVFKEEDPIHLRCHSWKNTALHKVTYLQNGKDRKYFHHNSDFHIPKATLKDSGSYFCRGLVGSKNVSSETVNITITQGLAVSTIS
Substance,response [1] [OD 405nm],response [2] [OD 405nm],response [3] [OD 405nm],response [4] [OD 405nm],response [5] [OD 405nm],response [6] [OD 405nm],response [7] [OD 405nm],response [8] [OD 405nm]
hexa-Fc (human IgG1-Fc with L309C/H310L and the 18-amino acid IgM tail piece) D221N,0.12,0.64,0.073,1.2,1.8,0.09,0.24,0.08
hexa-Fc (human IgG1-Fc with L309C/H310L and the 18-amino acid IgM tail piece) D221N; N297A,0.065,0.33,0.073,0.96,0.93,0.07,0.065,0.069
hexa-Fc (human IgG1-Fc with L309C/H310L and the 18-amino acid IgM tail piece) D221N; N297A; N563A,–,0.37,–,1.7,0.9,–,–,–
hexa-Fc (human IgG1-Fc with L309C/H310L and the 18-amino acid IgM tail piece) D221N; N563A,0.33,0.57,0.1,1.6,2.2,1.6,2,0.12
hexa-Fc (human IgG1-Fc with L309C/H310L and the 18-amino acid IgM tail piece) N297A,0.065,0.28,0.073,–,0.9,0.07,0.065,0.069
hexa-Fc (human IgG1-Fc with L309C/H310L and the 18-amino acid IgM tail piece) N297A; N563A,–,0.27,–,0.15,0.97,–,–,–
hexa-Fc (human IgG1-Fc with L309C/H310L and the 18-amino acid IgM tail piece) N563A,–,0.84,–,–,2.3,–,–,–

# — publication PMC5546038
